# Experimental data from publication PMC3077455 (Nature, 2011).
# T1: Scm3 residues 93-169, as it stands in the single-chain molecule scSCH (yeast, UniProt Q12334 93-169)
# T1 sequence: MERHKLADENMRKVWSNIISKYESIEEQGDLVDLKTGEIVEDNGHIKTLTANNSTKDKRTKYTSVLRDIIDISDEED
# B1: Histone H4 residues 42-103, as it stands in the single-chain molecule scSCH (domain or fragment)
# chain: not shown
# B2: Scm3_(83–169) (domain or fragment)
# chain: IIPKLTDDEVMERHKLADENMRKVWSNIISKYESIEEQGDLVDLKTGEIVEDNGHIKTLTANNSTKDKRTKYTSVLRDIIDISDEED
# B3: single chain Cse4-H4 (His6-KK-Cse4_(151–207)-LVPRGS-H4_(45–103)) (complex)
# chain: not shown
# Tests used:
# [1] = molecular target: T1, Scm3 residues 93-169, as it stands in …; test: NMR structure
# [2] = molecular target: single chain Cse4-H4 with Cse4 Met181Ser/Met184Gly (budding yeast | , UniProt P36012;P02309, Met181Ser | Met184Gly); test: ITC
# [3] = molecular target: single chain Cse4-H4 with Cse4 Ala189Ser/Ser190Val (budding yeast | , UniProt P36012;P02309, Ala189Ser | Ser190Val); test: ITC
# Scm3_(83–169) = molecular target: B2; test: ITC
binder,measurement,setting,value
B1,binding result,[1],binds
B2,fold reduction of the binding affinity against the wild type,[2],5.5 fold
same,fold reduction of the binding affinity against the wild type,[3],9 fold
B3,binding result,Scm3_(83–169),binds
